The values that follow come from US20120213844A1 (ALZA, published 2012).

Assay [1] addresses T1, sEGFR-MMB (dimeric sEGFR mimetibody) (human).
T1 construct: Disulfide-linked homodimer: QIQ, sEGFR, flexible linker, J segment, human IgG1 hinge, CH2, CH3; also called sEGFR-Fc; dimeric EGFR
Briefly: phage ELISA on coated sEGFR-MMB, chemiluminescence (background typically <200 units). Background: An ELISA detects its analyte on a solid surface through an enzyme-linked reagent.
Description: (§1) The protein solution was removed and wells were rinsed twice with Tris-Buffered Saline containing 0.05% Tween-20 (TBS-T) using a plate washer (Embla). The wells were blocked with Starting Block in TBS for 1 hr at room temperature and rinsed twice with TBS-T. An equal volume of phage supernatant and Starting Block in TBS were incubated in the wells for 1 hr at room temperature, and the wells were rinsed five times with TBS-T. Anti-M13/horseradish peroxidase conjugate (Amersham), diluted 1:5000 in Starting Block in TBS, was added into the wells and incubated for 1 hour at room temperature, and then the wells were rinsed five times with TBS-T. Finally, chemiluminescent peroxidase substrate (Roche) was added to the wells, and chemiluminescence was measured on a Tecan plate reader.

The target of assay [2] is T1, sEGFR-MMB (dimeric sEGFR mimetibody). Described as above. This is another data set of the same source.
Description: as §1
For assay [3] the target is unchanged. Described as above. This is another data set of the same source.
Description: as §1
Assay [4] has the same target. Described as above. The source holds these as a separate data set.
Description: as §1
The target in assay [5] is T2, Control-MMB (CNTO 360) (Homo sapiens (Human), UniProt P0DOX5 111-449 = IgG part).
T2 construct: MMB scaffold without a peptide; described as human IgG1 heavy chain dimer lacking the variable and most of the CH1 domains; also called blank mimetibody scaffold protein
The assay is described as follows: phage ELISA, Control-MMB coated at 5 ug/ml.
Description: The plates were held overnight at room temperature, washed twice with TBST (0.5M Tris Base, 9% NaCl, 0.05% tween, pH 7.6), and loaded with 200 μL per well of Starting Block (Pierce). […] The plates were held at room temperature for 1.5 hours for blocking. Plates were then washed twice with TBST and phage were added. The phage solutions were crude phage supernatant from overnight cultures diluted four-fold with Starting Block. After a one-hour incubation, the plates were washed thrice with TBST and 100 μL of a 1:5000 dilution of phage binding antibody conjugate (α-M13-HRP) was added to the wells. […] After a one-hour incubation the plates were washed five times with TBST, 100 μL of POD (BM Chemiluminescence ELISA substrate; Roche Applied Science) was added, and chemiluminescene recorded.

Assay [6] deals with T1, sEGFR-MMB (dimeric sEGFR mimetibody). Briefly: phage ELISA on coated sEGFR-MMB, chemiluminescence (background typically <200 units). The source holds these as a separate data set.
Description: as §1
In assay [7] the target is T3, human EGFR on tumor cells (human, UniProt P00533 25-1210). The assay is described as follows: cell-based or functional assay.
The target of assay [8] is T3, human EGFR on tumor cells. The assay is described as follows: flow cytometry on A431 cells, without EGF. (Flow cytometry measures light scatter and fluorescence of single cells or particles in a stream.)
For another assay, the target named is T4, Streptavidin.
T4 construct: also called Streptavidin alone; SA
The assay is described as follows: phage ELISA on streptavidin-coated wells without receptor [panel C].

For assay [9], the target named is T2, Control-MMB (CNTO 360). Briefly: phage ELISA on coated Control-MMB in the presence of EGF [panel B].
Description: as §1
(§2) Confirmatory Phage ELISA. […] The binding reaction was incubated for 1 hr at room temperature, and then bound phage were detected with anti-M13/HRP as above. For ELISAs with biotinylated receptors, streptavidin at 5 μg/ml was coated in the wells overnight at 4° C. […] The wells were rinsed with TBS-T and then blocked with Starting Block. Bound phage were washed and detected with anti-M13/HRP as described above.

Like-named read-outs stand apart in the source and are kept apart here. Positions of bridges follow the written chain, without caps; N, C: chain ends. No end group written: not given here.

T1 sequence (chain, as listed by the source limits assumed): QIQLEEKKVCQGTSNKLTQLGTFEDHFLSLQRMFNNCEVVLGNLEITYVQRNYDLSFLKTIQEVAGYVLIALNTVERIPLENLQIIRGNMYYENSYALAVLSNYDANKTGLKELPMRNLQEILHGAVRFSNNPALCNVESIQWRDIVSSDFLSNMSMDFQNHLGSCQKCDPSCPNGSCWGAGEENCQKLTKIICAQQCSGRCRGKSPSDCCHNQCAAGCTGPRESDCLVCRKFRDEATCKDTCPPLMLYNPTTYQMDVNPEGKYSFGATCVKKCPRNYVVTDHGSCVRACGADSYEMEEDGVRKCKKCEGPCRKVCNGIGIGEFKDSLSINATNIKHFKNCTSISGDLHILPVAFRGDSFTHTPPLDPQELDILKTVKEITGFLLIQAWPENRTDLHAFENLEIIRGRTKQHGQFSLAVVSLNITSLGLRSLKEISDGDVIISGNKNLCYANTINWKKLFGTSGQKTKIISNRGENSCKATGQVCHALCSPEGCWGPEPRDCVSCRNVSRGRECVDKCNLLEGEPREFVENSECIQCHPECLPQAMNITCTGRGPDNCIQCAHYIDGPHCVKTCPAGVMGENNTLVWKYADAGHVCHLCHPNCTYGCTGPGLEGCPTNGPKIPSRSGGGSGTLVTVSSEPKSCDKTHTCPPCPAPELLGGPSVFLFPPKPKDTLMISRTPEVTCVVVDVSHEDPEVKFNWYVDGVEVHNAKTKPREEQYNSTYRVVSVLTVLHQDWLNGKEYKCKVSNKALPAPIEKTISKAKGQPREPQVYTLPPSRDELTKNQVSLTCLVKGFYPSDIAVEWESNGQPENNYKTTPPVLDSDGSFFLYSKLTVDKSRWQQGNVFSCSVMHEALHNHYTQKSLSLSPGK
Description for Streptavidin: as §1, §2

B1: phage clone P173 (SEQ ID NO: 31) (peptide)
chain: GGGTDCVIFGLETYCLRGGGSGGSGG
notes: pIX phagemid display, library S18; also called PP173; not shown: M13 phage coat protein pIX (MSVL...)
As to B1, the ELISA in [1] is 37900 units.

B2: phage clone displaying SEQ ID NO: 11 (S15 hit) (peptide)
chain: GGGELGLPTLLCWPTDTLGGGSGGSGG
notes: pIX phagemid display, library S15; not shown: M13 phage coat protein pIX (MSVL...)
With B2, the ELISA in [2] is 9380 units.

B3: phage clone displaying SEQ ID NO: 24 (S18 hit) (peptide)
chain: GGGAKCIAFGNSVYCLNGGGSGGSGG
notes: pIX phagemid display, library S18; not shown: M13 phage coat protein pIX (MSVL...)
As for B3, the ELISA in assay [1] was 31500 units.

B4: phage clone displaying SEQ ID NO: 33 (S18 hit) (peptide)
chain: GGGTDCVRFGETIYCIVGGGSGGSGG
notes: as for B3
In assay [1], B4 came in with an ELISA of 13300 units.

B5: phage clone displaying SEQ ID NO: 21 (S15 hit) (peptide)
chain: GGGLPDLICAVDSGTSGAGGGSGGSGG
notes: as for B2
B5: in assay [2], the ELISA worked out at 1160 units.

B6: phage clone displaying SEQ ID NO: 38 (S19 hit) (peptide)
chain: GGGYDCMIRADGSLICWCGGGSGGSGG
notes: pIX phagemid display, library S19; not shown: M13 phage coat protein pIX (MSVL...)
Molecule B6 came in with an ELISA in assay [3] of 1290 units.

B7: phage clone displaying SEQ ID NO: 10 (S15 hit) (peptide)
chain: GGGYRLFVDESIFFCTRLGGGSGGSGG
notes: as for B2
On to B7, for which, in assay [2], the ELISA came to 3080 units.

B8: phage clone displaying SEQ ID NO: 35 (S18 hit) (peptide)
chain: GGGRGCVVFGDNIYCIVGGGSGGSGG
notes: as for B3
For the molecule B8, the ELISA in [1] was 22000 units.

B9: phage clone displaying SEQ ID NO: 29 (S18 hit) (peptide)
chain: GGGRACITFGKVVYCEVGGGSGGSGG
notes: as for B3
Consider B9, for which the ELISA in assay [1] is 30700 units.

B10: phage clone P175 (SEQ ID NO: 13) (peptide)
chain: GGGLPDDSLPELICKVRGGGGSGGSGG
notes: pIX phagemid display, library S15; also called PP175; not shown: M13 phage coat protein pIX (MSVL...)
For B10, the ELISA in assay [2] is 6790 units.

B11: phage clone P179 (SEQ ID NO: 39) (peptide)
chain: GGGGPCVLIRDYYLLCLEGGGSGGSGG
notes: pIX phagemid display, library S19; also called PP179; not shown: M13 phage coat protein pIX (MSVL...)
Take B11: in assay [3], the ELISA was 14000 units.

B12: phage clone P178 (SEQ ID NO: 53) (peptide)
chain: GGGRWCYFWWITICELGGGSGGSGG
notes: pIX phagemid display, library S17; also called PP178; not shown: M13 phage coat protein pIX (MSVL...)
B12 showed an ELISA in assay [4] of 7910 units.

B13: phage displaying P190 on pIX (SEQ ID NO: 55) (peptide)
chain: GGGDPCTWEVWGRECLQGGGSGGSGG
notes: pIX phagemid display, library S18; on average one peptide per particle; also called PHPEP190; pIX-190; not shown: M13 phage coat protein pIX (MSVL...)
On to B13, for which the binding result with Control-MMB (CNTO 360) [5] is reported as “no binding”.

B14: phage clone displaying SEQ ID NO: 26 (S18 hit) (peptide)
chain: GGGKHCILFEKTVYCAKGGGSGGSGG
notes: as for B3
For the molecule B14, in assay [1], the ELISA came out at 9110 units.

B15: phage clone displaying SEQ ID NO: 47 (S20 hit) (peptide)
chain: GGGSVCVGTAFPGWMVCGPGGGSGGSGG
notes: pIX phagemid display, library S20; not shown: M13 phage coat protein pIX (MSVL...)
Regarding B15, in [6], the ELISA turned out to be 4770 units.

B16: P190-DOXIL (peptide)
peptide: DPCTWEVWGRECLQ
modifications: disulfide 3-12 (inferred); not fully specified (N-terminus); also: inserted into doxorubicin-loaded liposomes
With B16, in [7], the “IC50 D4, cell killing of MDA-MB-468 cells (1 h treatment, 4 days)” value is 120 µg/mL and the “IC50 D6, cell killing of MDA-MB-468 cells (1 h treatment, 6 days)” value stood at 35 µg/mL.

B17: P190-MMB construct 4316 (Fc fusion)
chain: GGDPCTWEVWGRECLQGGGGSGGGGSGGGGSGGGGSCPPCPAPEAAGGPSVFLFPPKPKDTLMISRTPEVTCVVVDVSQEDPEVQFNWYVDGVEVHNAKTKPREEQFNSTYRVVSVLTVLHQDWLNGKEYKCKVSNKGLPSSIEKTISKAKGQPREPQVYTLPPSQEEMTKNQVSLTCLVKGFYPSDIAVEWESNGQPENNYKTTPPVLDSDGSFFLYSRLTVDKSRWQEGNVFSCSVMHEALHNHYTQKSLSLSLGK
notes: Human IgG4 hinge-CH2-CH3 with two Leu to Ala
For the molecule B17, the “fold increase in FACS signal” value in [8] was around 10 fold.

B18: phage clone displaying SEQ ID NO: 32 (S18 hit) (peptide)
chain: GGGSDCVLFGSKLFCSAGGGSGGSGG
notes: as for B3
For B18, the ELISA in assay [1] was determined as 35300 units.

B19: phage clone displaying SEQ ID NO: 18 (S15 hit) (peptide)
chain: GGGPIFSSLPVLYCTSQLGGGSGGSGG
notes: as for B2
For B19, the ELISA in [2] turned out to be 1420 units.

B20: phage clone displaying SEQ ID NO: 46 (S20 hit) (peptide)
chain: GGGYICTPSDIDSWYICYLGGGSGGSGG
notes: as for B15
B20 returned an ELISA in assay [6] of 6620 units.

B21: phage clone displaying SEQ ID NO: 49 (S20 hit) (peptide)
chain: GGGLLCATTSFRDWFVCFTGGGSGGSGG
notes: as for B15
As to B21, in assay [6], the ELISA was 4510 units.

B22: phage clone displaying SEQ ID NO: 43 (S20 hit) (peptide)
chain: GGGPTCDSATRRVLTICADGGGSGGSGG
notes: as for B15
As for B22, the ELISA in assay [6] was 5420 units.

B23: phage clone displaying SEQ ID NO: 44 (S20 hit) (peptide)
chain: GGGWMCFLEGYGASLMCQCGGGSGGSGG
notes: as for B15
With B23, the ELISA in assay [6] came out at 4800 units.

B24: phage clone P177 (SEQ ID NO: 52) (peptide)
chain: GGGDACTMVFLWCSLGGGSGGSGG
notes: pIX phagemid display, library S16; also called PP177; not shown: M13 phage coat protein pIX (MSVL...)
Regarding B24, in assay [4], the ELISA came out at 8660 units.

B25: phage clone displaying SEQ ID NO: 23 (S18 hit) (peptide)
chain: GGGAGCIAFVDVVYCARGGGSGGSGG
notes: as for B3
In [1], B25 displayed an ELISA of 6380 units.

B26: phage clone displaying SEQ ID NO: 14 (S15 hit) (peptide)
chain: GGGHVSLQSLPELICVVSGGGSGGSGG
notes: as for B2
In assay [2], B26 had an ELISA of 1360 units.

B27: phage clone displaying SEQ ID NO: 19 (S15 hit) (peptide)
chain: GGGGADTLPDLLCWESSLGGGSGGSGG
notes: as for B2
Molecule B27 registered an ELISA in assay [2] of 5720 units.

B28: phage clone displaying SEQ ID NO: 27 (S18 hit) (peptide)
chain: GGGDSCIQFANLLYCAIGGGSGGSGG
notes: as for B3
On to B28, for which the ELISA in [1] came to 53200 units.

B29: phage clone displaying SEQ ID NO: 12 (S15 hit) (peptide)
chain: GGGVSGILPILVCHPAATGGGSGGSGG
notes: as for B2
B29: the ELISA in assay [2] came to 1110 units.

B30: phage clone displaying SEQ ID NO: 41 (S19 hit) (peptide)
chain: GGGCDCREAVSASLVCRYGGGSGGSGG
notes: as for B6
In turn, B30 showed an ELISA in [3] of 3350 units.

B31: phage clone displaying SEQ ID NO: 15 (S15 hit) (peptide)
chain: GGGNWFSLPTLLCFPLNPGGGSGGSGG
notes: as for B2
In assay [2], B31 showed an ELISA of 3670 units.

B32: phage clone displaying SEQ ID NO: 25 (S18 hit) (peptide)
chain: GGGRDCIIFDKTVYCVIGGGSGGSGG
notes: as for B3
Regarding B32, the ELISA in [1] is 17100 units.

B33: phage clone displaying SEQ ID NO: 34 (S18 hit) (peptide)
chain: GGGYDCVSFGAVAYCPQGGGSGGSGG
notes: as for B3
With B33, the ELISA in assay [1] stood at 3200 units.

B34: phage clone P180 (SEQ ID NO: 37) (peptide)
chain: GGGMICYLVDSGNIICYKGGGSGGSGG
notes: pIX phagemid display, library S19; also called PP180; not shown: M13 phage coat protein pIX (MSVL...)
In assay [3], B34 came in with an ELISA of 8810 units.

B35: phage clone displaying SEQ ID NO: 28 (S18 hit) (peptide)
chain: GGGTDCIRFGVLWYCLVGGGSGGSGG
notes: as for B3
With B35, the ELISA in assay [1] is 4750 units.

B36: phage clone P176 (SEQ ID NO: 48) (peptide)
chain: GGGKTCVSTTFDLWFVCFAGGGSGGSGG
notes: pIX phagemid display, library S20; also called PP176; not shown: M13 phage coat protein pIX (MSVL...)
As for B36, in assay [6], the ELISA amounted to 37400 units. The binding result in the assay with Streptavidin and in the assay with Control-MMB (CNTO 360) [9] was “no binding” throughout.

B37: phage clone displaying SEQ ID NO: 40 (S19 hit) (peptide)
chain: GGGAFCRLDFNQWLTCLVGGGSGGSGG
notes: as for B6
B37 displayed an ELISA in assay [3] of 2580 units.

B38: phage clone displaying SEQ ID NO: 45 (S20 hit) (peptide)
chain: GGGDSCCSFLTDGTVVCSLGGGSGGSGG
notes: as for B15
As for B38, the ELISA in assay [6] was determined as 9540 units.

B39: phage clone displaying SEQ ID NO: 20 (S15 hit) (peptide)
chain: GGGTVFTLPELVCVVAGTGGGSGGSGG
notes: as for B2
Consider B39, for which the ELISA in [2] turned out to be 1520 units.

B40: phage clone displaying SEQ ID NO: 16 (S15 hit) (peptide)
chain: GGGSTITSLPTLQCWPILGGGSGGSGG
notes: as for B2
In turn, B40 had an ELISA in assay [2] of 13300 units.

B41: phage clone displaying SEQ ID NO: 17 (S15 hit) (peptide)
chain: GGGPIDDESLPVLYCVTSGGGSGGSGG
notes: as for B2
Consider B41, for which the ELISA in assay [2] came out at 1780 units.

B42: phage clone displaying SEQ ID NO: 30 (S18 hit) (peptide)
chain: GGGAYCSFVAGDLVCQVGGGSGGSGG
notes: as for B3
For the molecule B42, the ELISA in [1] is 19800 units.

B43: phage clone P174 (SEQ ID NO: 51) (peptide)
chain: GGGSGCLDALWQCVYGGGSGGSGG
notes: pIX phagemid display, library S16; also called PP174; not shown: M13 phage coat protein pIX (MSVL...)
With B43, the ELISA in assay [4] came to 34600 units.
